The results in this text go back to patent US20080004436A1 (YEDA RESEARCH AND DEVELOPMENT CO LTD AT THE WEIZMANN …, published 2008).

In experiment [1] the target is T1, colicin E9 DNase (ColE9) (E. coli, UniProt P09883 449-582).
T1 sequence: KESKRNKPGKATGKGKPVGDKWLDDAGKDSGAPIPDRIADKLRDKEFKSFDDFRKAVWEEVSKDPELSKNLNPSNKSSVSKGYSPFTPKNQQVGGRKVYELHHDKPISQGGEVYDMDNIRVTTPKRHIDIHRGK
The experiment can be described thus: not stated (running text of Example 4).

For experiment [2], the target named is T2, colicin E7 DNase (ColE7) (E. coli, UniProt Q47112 444-576).
T2 sequence: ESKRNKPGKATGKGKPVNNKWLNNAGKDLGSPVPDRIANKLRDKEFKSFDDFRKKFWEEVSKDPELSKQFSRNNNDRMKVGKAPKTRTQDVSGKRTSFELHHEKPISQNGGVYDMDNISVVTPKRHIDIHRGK
The experiment can be described thus: not stated (running text of Example 4).

For experiment [3], the target named is T2, colicin E7 DNase (ColE7). Description: cell-based or functional assay.
In experiment [4] the target is T2, colicin E7 DNase (ColE7). Description: affinity measurements (Kleanthous laboratory; method not stated).

B1: immunity protein 7 (Im7), wild type (other)
chain: MELKNSISDYTEAEFVQLLKEIEKENVAATDDVLDVLLEHFVKITEHPDGTDLIYYPSDNRDDSPEGIVKEIKEWRAANGKPGFKQG
notes: also called wild-type Im7
One may read the Kd as a measure of binding affinity in units of concentration. Broadly, the koff is a measure of how fast the partners let go of each other. As usually defined, the kon is a measure of how fast the partners come together. Molecule B1 showed an equilibrium dissociation constant (Kd) in experiment [1] of 56 nM. Moreover, the Kd in experiment [2] amounted to 0.00079 pM. In experiment [3], the “ColE7 concentration at which full protection was observed, in vivo protection assay, 0.05 mM IPTG” value is above 100 µM; the “ColE7 concentration at which full protection was observed, in vivo protection assay, 1 mM IPTG” value is above 100 µM; the “ColE7 concentration at which full protection was observed, in vivo protection assay, w/o IPTG” value was determined as 100 µM. In experiment [4], the dissociation constant (Kd) is at most 0.01 pM, the koff is at most 1e-05 s⁻¹ and the kon came out at 7.6e+08 M⁻¹ s⁻¹.

B2: in vitro evolved Im9 variant #8 (Round 8, high stringency) (designed binder)
chain: MELKHRISDYTEAEFLQLVTTICDANASSEEELDKLITHFEEMTEHPSGSDLIYWPKEGDDDSPSGIVNTVKQWRAANGKSGFKQG
notes: also called Evolved Im variant#8; evolved variant 8
Regarding B2, in experiment [4], binding was put at a Kd of 3.85 pM, the koff worked out at 0.0032 s⁻¹ and the kon came to 8.3e+08 M⁻¹ s⁻¹.
